Data on 3 molecules can be found in publication PMC3268815 (Nature, 2011).

Where a chain is given by its changes, count along the chain named. Names and notes keep the numbering of the source.

Data set [1] concerns the molecule itself. The experiment in a line: crystal structure.
The target of data set [2] is T1, fibrinogen fragment D (human, UniProt P02671 130-216; P02675 164-491; P02679 114-432).
T1 sequence 1: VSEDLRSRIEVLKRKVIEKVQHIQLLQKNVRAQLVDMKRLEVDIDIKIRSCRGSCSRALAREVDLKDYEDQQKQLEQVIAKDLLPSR
T1 sequence 2: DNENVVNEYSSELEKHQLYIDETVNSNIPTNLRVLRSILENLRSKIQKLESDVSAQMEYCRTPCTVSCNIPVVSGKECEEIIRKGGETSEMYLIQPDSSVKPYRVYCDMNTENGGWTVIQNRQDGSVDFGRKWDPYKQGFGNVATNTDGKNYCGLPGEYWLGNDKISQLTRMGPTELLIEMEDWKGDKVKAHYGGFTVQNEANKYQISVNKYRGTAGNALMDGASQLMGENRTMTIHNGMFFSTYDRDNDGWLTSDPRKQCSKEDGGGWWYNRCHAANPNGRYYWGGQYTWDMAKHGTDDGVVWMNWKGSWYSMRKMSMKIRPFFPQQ
T1 sequence 3: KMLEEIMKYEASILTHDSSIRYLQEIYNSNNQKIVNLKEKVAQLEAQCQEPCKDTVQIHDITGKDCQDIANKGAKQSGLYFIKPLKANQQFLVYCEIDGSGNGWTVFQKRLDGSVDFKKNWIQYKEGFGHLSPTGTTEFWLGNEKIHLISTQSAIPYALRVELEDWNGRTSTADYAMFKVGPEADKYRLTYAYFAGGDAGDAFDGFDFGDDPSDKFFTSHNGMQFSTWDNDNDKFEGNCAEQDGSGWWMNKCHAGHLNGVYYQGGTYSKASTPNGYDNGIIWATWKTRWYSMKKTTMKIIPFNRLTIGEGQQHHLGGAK
Nature of the data set: crystal structure.

Data set [3] addresses T1, fibrinogen fragment D. Nature of the data set: pull-down.

B1: M1^BC1 (M1 fragment with B-repeats, S-region and first C-repeat) (domain or fragment, UniProt Q99XV0 128-263, looked up)
chain: WDRQRLEKELEEKKEALELAIDQASRDYHRATALEKELEEKKKALELAIDQASQDYNRANVLEKELETITREQEINRNLLGNAKLELDQLSSEKEQLTIEKAKLEEEKQISDASRQSLRRDLDASREAKKQVEKDL
Regarding B1, the stoichiometry N (usually a count of units in the complex or per binding partner) in data set [1] turned out to be 2.

B2: selenomethionine-substituted M1^BC1(I148M) (domain or fragment, UniProt Q99XV0 128-263, looked up)
chain: B1 chain with I21M
modifications: selenomethionine-substituted
Turning to B2, the binding result in data set [2] is “binds”.

B3: M1 B2C (residues 162-189 deleted and inserted after C-terminal residue 453) (natural protein, UniProt Q99XV0 42-453, looked up)
chain: NGDGNPREVIEDLAANNPAIQNIRLRYENKDLKARLENAMEVAGRDFKRAEELEKAKQALEDQRKDLETKLKELQQDYDLAKESTSWDRQRLEKELEEKKEALELAIDQASRDYHRATALEKELETITREQEINRNLLGNAKLELDQLSSEKEQLTIEKAKLEEEKQISDASRQSLRRDLDASREAKKQVEKDLANLTAELDKVKEDKQISDASRQGLRRDLDASREAKKQVEKDLANLTAELDKVKEEKQISDASRQGLRRDLDASREAKKQVEKALEEANSKLAALEKLNKELEESKKLTEKEKAELQAKLEAEAKALKEQLAKQAEELAKLRAGKASDSQTPDTKPGNKAVPGKGQAPQAGTKPNQNKAPMKETKRQLPSTEKELEEKKKALELAIDQASQDYNRANVL
For B3, in data set [3], the binding result is “binds”.
